Consider one molecule from PMC6192543 (Journal of the American Chemical Society, 2018).

This assay deals with human A2A adenosine receptor variant A2AAR[K233W] (human, UniProt P29274 1-316, N154Q | K233W, uniformly 15N-labelled, ~70% 2H). Briefly: NMR titration.
Sequence of human A2A adenosine receptor variant A2AAR[K233W] (P29274 1-316 N154Q/K233W): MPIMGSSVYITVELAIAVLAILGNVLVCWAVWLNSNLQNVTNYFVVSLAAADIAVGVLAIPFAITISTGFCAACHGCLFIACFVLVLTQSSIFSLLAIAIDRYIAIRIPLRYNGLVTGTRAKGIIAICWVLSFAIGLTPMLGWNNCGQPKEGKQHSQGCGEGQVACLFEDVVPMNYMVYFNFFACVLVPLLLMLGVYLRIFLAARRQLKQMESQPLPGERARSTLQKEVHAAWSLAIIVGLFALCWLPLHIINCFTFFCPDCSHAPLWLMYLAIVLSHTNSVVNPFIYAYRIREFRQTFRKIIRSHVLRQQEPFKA

Turning to RVFNDARDIIQRMHLRQYELL (peptide, UniProt P63092 374-394, looked up) [C-terminal polypeptide GαS(374–394)[C379A]], the binding result is reported as “binds”.
